# Results as given in patent US20220143136A1, “USE OF ANNEXINS IN PREVENTING AND TREATING MUSCLE MEMBRANE INJURY” (NORTHWESTERN UNIVERSITY, priority 2018, published 2022).
# Entries after “also recorded” stand apart in the source; their conditions may differ.
# B1: recombinant annexin A6: recombinant human annexin A6 protein with C-terminal HIS tag (5186-A6-050, R&D systems); mouse protein from Northwestern core in one cohort (protein, UniProt P08133 2-673, looked up)
# Annexin A6: AKPAQGAKYRGSIHDFPGFDPNQDAEALYTAMKGFGSDKEAILDIITSRSNRQRQEVCQSYKSLYGKDLIADLKYELTGKFERLIVGLMRPPAYCDAKEIKDAISGIGTDEKCLIEILASRTNEQMHQLVAAYKDAYERDLEADIIGDTSGHFQKMLVVLLQGTREEDDVVSEDLVQQDVQDLYEAGELKWGTDEAQFIYILGNRSKQHLRLVFDEYLKTTGKPIEASIRGELSGDFEKLMLAVVKCIRSTPEYFAERLFKAMKGLGTRDNTLIRIMVSRSELDMLDIREIFRTKYEKSLYSMIKNDTSGEYKKTLLKLSGGDDDAAGQFFPEAAQVAYQMWELSAVARVELKGTVRPANDFNPDADAKALRKAMKGLGTDEDTIIDIITHRSNVQRQQIRQTFKSHFGRDLMTDLKSEISGDLARLILGLMMPPAHYDAKQLKKAMEGAGTDEKALIEILATRTNAEIRAINEAYKEDYHKSLEDALSSDTSGHFRRILISLATGHREEGGENLDQAREDAQVAAEILEIADTPSGDKTSLETRFMTILCTRSYPHLRRVFQEFIKMTNYDVEHTIKKEMSGDVRDAFVAIVQSVKNKPLFFADKLYKSMKGAGTDEKTLTRIMVSRSEIDLLNIRREFIEKYDKSLHQAIEGDTSGDFLKALLALCGGED
# modifications: C-terminal His tag
# notes: recombinant human annexin A6 protein with C-terminal HIS tag (5186-A6-050, R&D systems); mouse protein from Northwestern core in one cohort
# How the values were obtained:
# Sgcg-null mice = experiment: Chronic injury, short-term chronic dosing and serum biomarker analysis; assay type: in vivo, mouse; settings: for serum creatine kinase (CK) at day 14: 1 mg/kg once every three days for 14 days, vs PBS control
# Protocol: Chronic Injury and biomarker analysis. […] Mice were injected once every 3 days for a period of 12 days. Serum was acquired as previously described (Demonbreun et al 2016a). Serum CK was analyzed for each mouse using the EnzyChrom Creatine Kinase Assay (catalog ECPK-100, BioAssay Systems) following the manufacturer's instructions. Lactate dehydrogenase was analyzed for each mouse using (LDH cytotoxicity kit MK401, Takara) following the manufacturer's instructions.
# Serum collection and CK analysis.
# Short-term chronic dosing regimen. […] An additional cohort of Sgcg-null mice had blood drawn as described above immediately prior to the first protein injection. Then, 1 mg/kg recombinant annexin A6 or annexin A2 (both produced by Northwestern's Protein Production Core) was injected into the right retro-orbital cavity of sedated mice, once every 3 days for a total of 5 injections and then blood drawn on day 14 post initial injection.
# wildtype myofibers [1] = experiment: Laser injury FM 4-64 uptake, E coli versus HEK cell produced rANXA6; assay type: cell-based, mouse; settings: 13 μg/ml and 130 μg/ml; vs BSA control
# Protocol: Myofiber isolation, laser injury, and dye measurement. For recombinant myofibers studies, myofibers were isolated from wildtype mice. Myofibers were incubated in Ringer's media with 13 μg/ml or 130 μg/ml human recombinant annexin, E coli or HEK cell produced. Bovine serum albumin (BSA) was used as a negative control. FM 4-64 ([…]) was added to the myofibers just prior to imaging. Fibers were subjected to laser-induced damage at room temperature using the Nikon A1R-MP multiphoton microscope. Imaging was performed using a 25×1.1 NA objective directed by the NIS-Elements AR imaging software. FM 4-64 was excited using a 920 nm wavelength laser and emission wavelengths of 575 nm and 629 nm were collected, respectively. To induce laser damage on isolated myofibers, a diffraction limited spot (diameter approximately 410 nm) was created on the lateral membrane of the myofiber using a 920 nm wavelength laser at 10-15% laser power for 1 second. FM 4-64 area was measured using FIJI from a single slice near the middle of the z-stack. Myofiber quality control was based on a number of characteristics including using adherent myofibers with intact sarcomere structure. Myofibers appeared devoid of tears or ruptures induced during the isolation protocol. The region of the myofiber selected for damage was linear and not located on a nucleus or neuromuscular junction.
# Statistical analyses were performed with Prism (Graphpad, La Jolla, Calif.). Comparisons relied on ANOVA (1way ANOVA for 1 variable). P-values of less than or equal to 0.05 were considered significant. Error bars represent +/−standard error of the mean (SEM).
# mdx/hLTBP4 myofibers = experiment: Laser-induced membrane injury, FM 4-64 dye uptake, dystrophic myofibers; assay type: cell-based, mouse; settings: 25 μg/ml extracellular recombinant protein vs vehicle control, dystrophic (DMD model) myofibers
# Protocol: For recombinant myofibers studies, myofibers were isolated from mdx/hLTBP4 mice as described above. Myofibers were incubated in Ringer's media with or without 25 μg/ml recombinant annexin A6 (5186-A6-050, R&D systems). FM 4-64 ([…]) was added to the myofibers just prior to imaging. Images were acquired and quantitated as described above. FM 4-64 area was measured using FIJI at imaging endpoint from a single slice near the middle of the z-stack. Z-stack step size (0.125 μm) was acquired from cap end to end.
# Multiphoton laser injury and imaging. Fibers were subjected to laser-induced damage at room temperature using the Nikon A1R-MP multiphoton microscope. Imaging was performed using a 25×1.1 NA objective directed by the NIS-Elements AR imaging software. Green fluorescence protein (GFP) and FM 4-64 were excited using a 920 nm wavelength laser and emission wavelengths of 575 nm and 629 nm were collected respectively. To induce laser damage on isolated myofibers, a diffraction limited spot (diameter approximately 410 nm) was created on the lateral membrane of the myofiber using a 920 nm wavelength laser at 10-15% laser power for 1 second. […]
# Multiphoton laser injury and imaging. […] Green fluorescence protein (GFP) and FM 4-64 were excited using a 920 nm wavelength laser and emission wavelengths of 575 nm and 629 nm were collected respectively. […]
# wildtype myofibers [2] = experiment: Ca2+-dependency of recombinant annexin A6 protection, FM 1-43 uptake after laser injury; assay type: cell-based, mouse; settings: 20 μg/ml rANXA6 pretreatment, 0 mM Ca2+ + EGTA compared with 1 mM Ca2+
# Protocol: Multiphoton laser injury and imaging. Fibers were subjected to laser-induced damage at room temperature using the Nikon A1R-MP multiphoton microscope. Imaging was performed using a 25×1.1 NA objective directed by the NIS-Elements AR imaging software. Green fluorescence protein (GFP) and FM 4-64 were excited using a 920 nm wavelength laser and emission wavelengths of 575 nm and 629 nm were collected respectively. To induce laser damage on isolated myofibers, a diffraction limited spot (diameter approximately 410 nm) was created on the lateral membrane of the myofiber using a 920 nm wavelength laser at 10-15% laser power for 1 s. Time lapse images were collected as follows: one image was collected prior to damage, one image upon damage, then every 8 seconds for 80 seconds (10 images) followed by every 30 seconds for 5 minutes (10 images). At the end of the time lapsed image series, z-stack images were collected at 250 nm intervals through the damaged site on the myofiber directed by the NIS-Elements AR imaging software. The multiphoton was used to acquire data presented in FIG. 5, FIG. 10D and FIG. 19.
# For recombinant protein calcium studies, myofibers were isolated from wildtype mice as described above. […] Images were acquired and quantitated as described above. FM 1-43 fluorescence over time was measured using FIJI and plotted overtime as F/F0.
# [3] = 1 mg/kg retro-orbital once every 3 days for 12 days, vs control
molecule,measurement,setting,value
B1,serum CK fold change post/pretreatment (Day 14/Day 0),"Sgcg-null mice; 1 mg/kg every 3 days for 14 days, compared to recombinant annexin A2, proteins from Northwestern's Protein Production Core",significantly reduced
same,serum creatine kinase (CK) at day 14,Sgcg-null mice,significantly decreased
same,serum creatine kinase (CK) at day 14,Sgcg-null mice; listed as rANXA6,lower
same,serum creatine kinase (CK),Sgcg-null mice; [3],reduced
same,serum lactate dehydrogenase (LDH),Sgcg-null mice; [3],reduced
same,histology of gastrocnemius/soleus muscle,"Sgcg-null mice; 14-day dosing, vs PBS",qualitatively less injury
same,FM 4-64 dye uptake after laser injury,wildtype myofibers [1],reduction
same,FM 4-64 fluorescence / dye uptake after laser injury,mdx/hLTBP4 myofibers,reduced
same,FM 4-64 fluorescence / dye uptake after laser injury,mdx/hLTBP4 myofibers; listed as rANXA6,significantly smaller; also recorded: significantly less
same,FM 1-43 fluorescence accumulation at the lesion over time (F/F0),wildtype myofibers [2],significantly increased
same,FM 1-43 fluorescence accumulation at the lesion over time (F/F0),wildtype myofibers [2]; listed as rANXA6,significantly reduced at 1 mM
